Earlier results as cited in patent US20070014786A1, “Methods for treating taxol-induced gut disorder” (RINAT NEUROSCIENCE CORP., priority 2003, published 2007).

Target: T1, low affinity receptor (LNGFR), p75NTR or p75 (Homo sapiens, UniProt P08138)
T1 sequence (P08138 29-427): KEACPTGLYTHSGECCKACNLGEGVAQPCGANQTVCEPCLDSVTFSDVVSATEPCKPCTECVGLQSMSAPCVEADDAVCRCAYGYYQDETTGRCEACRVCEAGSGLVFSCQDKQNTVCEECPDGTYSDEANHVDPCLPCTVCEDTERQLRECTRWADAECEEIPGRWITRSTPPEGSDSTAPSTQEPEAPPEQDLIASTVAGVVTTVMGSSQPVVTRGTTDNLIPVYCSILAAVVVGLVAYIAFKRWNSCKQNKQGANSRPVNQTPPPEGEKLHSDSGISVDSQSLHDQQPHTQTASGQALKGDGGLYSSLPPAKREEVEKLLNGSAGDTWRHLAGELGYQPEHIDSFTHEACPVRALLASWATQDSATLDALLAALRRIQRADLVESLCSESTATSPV
Conditions: according to current knowledge (background)

B1: brain-derived neurotrophic factor (protein, UniProt P23560 19-247, looked up)
Neurotrophic factor BDNF …: APMKEANIRGQGGLAYPGVRTHGTLESVNGPKAGSRGLTSLADTFEHVIEELLDEDQKVRPNEENNKDADLYTSRVMLSSQVPLEPPLLFLLEEYKNYLDAANMSMRVRRHSDPARRGELSVCDSISEWVTAADKKTAVDMSGGTVTVLEKVPVSKGQLKQYFYETKCNPMGYTKEGCRGIDKRHWNSQCRTTQSYVRALTMDSKKRIGWRFIRIDTSCVCTLTIKRGR
notes: neurotrophin family member
  Kd: 2 nM

B2: neurotrophin-4/5 (protein, UniProt P34130 81-210, looked up)
Neurotrophin-4: GVSETAPASRRGELAVCDAVSGWVTDRRTAVDLRGREVEVLGEVPAAGGSPLRQYFFETRCKADNAEEGGPGAGGGGCRGVDRRHWVSECKAKQSYVRALTADAQGRVGWRWIRIDTACVCTLLSRTGRA
notes: neurotrophin family member
  Kd: 2 nM
